Assay results from the supplement of paper PMC10065799, “High-throughput profiling of sequence recognition by tyrosine kinases and SH2 domains using bacterial peptide display” (eLife, 2023).

Tests used:
Fes = Fes (UniProt P07332); experiment: phosphorylation enrichment, bacterial display (enrichment ratio); higher = better substrate or ligand; peptides without Tyr show the background
AncSZ = experiment: as above
MERTK = MERTK (UniProt Q12866); experiment: as above
FGFR3 = FGFR3 (UniProt P22607); experiment: as above
Jak2 = Jak2 (UniProt O60674); experiment: as above
Sequence of Jak2 (O60674 whole entry, looked up): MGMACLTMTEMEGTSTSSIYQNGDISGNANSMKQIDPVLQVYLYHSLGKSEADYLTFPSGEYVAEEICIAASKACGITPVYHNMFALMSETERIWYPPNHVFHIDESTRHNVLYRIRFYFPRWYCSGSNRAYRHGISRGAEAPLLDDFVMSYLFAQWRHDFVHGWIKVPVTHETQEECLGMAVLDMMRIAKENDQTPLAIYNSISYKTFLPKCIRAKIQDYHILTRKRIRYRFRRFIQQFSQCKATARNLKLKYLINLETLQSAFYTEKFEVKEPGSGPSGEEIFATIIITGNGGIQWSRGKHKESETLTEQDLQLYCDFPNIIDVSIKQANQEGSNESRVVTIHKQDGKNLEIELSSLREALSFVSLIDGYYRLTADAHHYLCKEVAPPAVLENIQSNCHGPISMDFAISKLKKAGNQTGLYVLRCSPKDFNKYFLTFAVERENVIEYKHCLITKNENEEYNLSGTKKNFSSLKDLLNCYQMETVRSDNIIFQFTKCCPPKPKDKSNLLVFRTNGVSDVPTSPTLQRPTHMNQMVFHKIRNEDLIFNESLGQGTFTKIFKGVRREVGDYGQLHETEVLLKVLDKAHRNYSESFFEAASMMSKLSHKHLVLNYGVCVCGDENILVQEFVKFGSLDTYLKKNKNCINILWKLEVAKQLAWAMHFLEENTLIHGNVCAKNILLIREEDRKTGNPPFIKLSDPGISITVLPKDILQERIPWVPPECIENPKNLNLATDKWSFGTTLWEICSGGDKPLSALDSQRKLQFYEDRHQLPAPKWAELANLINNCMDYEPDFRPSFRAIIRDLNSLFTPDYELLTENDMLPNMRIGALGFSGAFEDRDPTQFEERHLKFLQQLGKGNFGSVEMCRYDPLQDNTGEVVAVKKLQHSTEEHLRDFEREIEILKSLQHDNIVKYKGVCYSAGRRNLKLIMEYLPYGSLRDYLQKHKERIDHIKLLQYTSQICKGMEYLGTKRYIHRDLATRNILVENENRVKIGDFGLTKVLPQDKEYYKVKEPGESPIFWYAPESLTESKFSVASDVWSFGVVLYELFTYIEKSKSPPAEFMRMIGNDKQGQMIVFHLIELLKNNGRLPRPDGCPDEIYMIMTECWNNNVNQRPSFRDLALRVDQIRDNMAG

Fer (mouse) = experiment: as above
c-Src = experiment: as above
Fyn = Fyn (UniProt P06241); experiment: as above
Hck = Hck (UniProt P08631); experiment: as above
FGFR1 = FGFR1 (UniProt P11362); experiment: as above
Sequence of FGFR1 (P11362 whole entry, looked up): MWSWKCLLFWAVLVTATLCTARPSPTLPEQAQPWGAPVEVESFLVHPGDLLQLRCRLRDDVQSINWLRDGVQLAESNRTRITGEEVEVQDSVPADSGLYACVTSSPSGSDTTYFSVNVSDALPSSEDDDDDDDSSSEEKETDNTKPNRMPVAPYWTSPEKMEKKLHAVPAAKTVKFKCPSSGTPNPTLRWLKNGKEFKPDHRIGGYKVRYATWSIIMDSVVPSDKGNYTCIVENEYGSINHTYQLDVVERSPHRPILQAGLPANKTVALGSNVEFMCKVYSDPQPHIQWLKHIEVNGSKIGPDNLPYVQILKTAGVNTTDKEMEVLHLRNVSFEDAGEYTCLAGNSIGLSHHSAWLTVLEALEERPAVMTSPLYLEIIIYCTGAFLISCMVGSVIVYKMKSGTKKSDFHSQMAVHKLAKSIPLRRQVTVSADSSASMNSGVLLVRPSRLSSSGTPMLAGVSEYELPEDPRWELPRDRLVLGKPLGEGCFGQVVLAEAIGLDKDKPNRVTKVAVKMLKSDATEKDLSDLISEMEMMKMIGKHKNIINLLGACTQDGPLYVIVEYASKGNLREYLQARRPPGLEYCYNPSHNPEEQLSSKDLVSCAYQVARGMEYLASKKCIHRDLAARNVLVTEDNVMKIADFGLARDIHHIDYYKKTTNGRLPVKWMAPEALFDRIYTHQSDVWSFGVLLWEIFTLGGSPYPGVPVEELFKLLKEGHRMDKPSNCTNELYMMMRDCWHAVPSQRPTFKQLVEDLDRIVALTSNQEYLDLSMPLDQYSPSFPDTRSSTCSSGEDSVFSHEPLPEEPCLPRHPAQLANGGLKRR

EPHB1 = EPHB1 (UniProt P54762); experiment: as above
c-Abl (mouse) = experiment: as above
EPHB2 = EPHB2 (UniProt P29323); experiment: as above
Sequence of EPHB2 (P29323 whole entry, looked up): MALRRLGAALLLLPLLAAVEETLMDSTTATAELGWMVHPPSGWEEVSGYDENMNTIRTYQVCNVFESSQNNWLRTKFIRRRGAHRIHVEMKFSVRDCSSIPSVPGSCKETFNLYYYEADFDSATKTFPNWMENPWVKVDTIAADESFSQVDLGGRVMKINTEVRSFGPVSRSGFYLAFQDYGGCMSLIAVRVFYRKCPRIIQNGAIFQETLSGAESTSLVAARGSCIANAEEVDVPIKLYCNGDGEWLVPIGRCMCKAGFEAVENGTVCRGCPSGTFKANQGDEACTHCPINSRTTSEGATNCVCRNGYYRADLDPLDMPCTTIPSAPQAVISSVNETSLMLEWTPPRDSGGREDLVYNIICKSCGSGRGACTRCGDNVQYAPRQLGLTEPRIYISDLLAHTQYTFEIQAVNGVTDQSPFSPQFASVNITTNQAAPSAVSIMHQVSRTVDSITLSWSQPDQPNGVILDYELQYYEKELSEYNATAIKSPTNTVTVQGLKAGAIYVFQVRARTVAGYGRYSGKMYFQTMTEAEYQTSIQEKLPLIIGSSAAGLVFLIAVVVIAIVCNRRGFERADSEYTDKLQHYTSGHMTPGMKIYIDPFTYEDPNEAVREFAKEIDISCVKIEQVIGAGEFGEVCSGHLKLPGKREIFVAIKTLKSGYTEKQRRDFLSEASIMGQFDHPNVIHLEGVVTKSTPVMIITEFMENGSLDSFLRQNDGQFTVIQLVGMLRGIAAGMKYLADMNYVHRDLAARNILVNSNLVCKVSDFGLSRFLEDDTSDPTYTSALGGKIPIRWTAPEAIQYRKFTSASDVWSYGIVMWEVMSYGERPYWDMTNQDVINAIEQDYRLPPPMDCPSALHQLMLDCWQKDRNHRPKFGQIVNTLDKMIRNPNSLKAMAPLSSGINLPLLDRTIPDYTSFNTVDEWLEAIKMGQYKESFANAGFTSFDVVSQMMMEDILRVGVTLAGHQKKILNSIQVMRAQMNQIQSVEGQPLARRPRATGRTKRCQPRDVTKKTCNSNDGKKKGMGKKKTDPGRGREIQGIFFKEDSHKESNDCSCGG

SHP2-C SH2 = experiment: SH2 binding enrichment of the phosphorylated peptide, bacterial display (enrichment ratio); higher = better substrate or ligand; peptides without Tyr show the background
c-Src SH2 = experiment: as above
Grb2 SH2 = Grb2 SH2 (UniProt P62993); experiment: as above
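For SH2 binding enrichment of the phosphorylated peptide, bacterial display in this document: peptide library displayed on the E. coli surface as eCPX fusions, selected cells deep-sequenced, score is each peptide's frequency after selection divided by its frequency in the input.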
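For phosphorylation enrichment, bacterial display in this document: 11-residue human phosphosite peptides and single-mutation variants displayed on the E. coli surface, counted by deep sequencing, each peptide's frequency after selection divided by its frequency in the unselected input library; frequency after pTyr selection over input frequency; kinase dosed for 20-30% of maximal phosphorylation in three min.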

Sequence of MERTK (Q12866 whole entry, looked up): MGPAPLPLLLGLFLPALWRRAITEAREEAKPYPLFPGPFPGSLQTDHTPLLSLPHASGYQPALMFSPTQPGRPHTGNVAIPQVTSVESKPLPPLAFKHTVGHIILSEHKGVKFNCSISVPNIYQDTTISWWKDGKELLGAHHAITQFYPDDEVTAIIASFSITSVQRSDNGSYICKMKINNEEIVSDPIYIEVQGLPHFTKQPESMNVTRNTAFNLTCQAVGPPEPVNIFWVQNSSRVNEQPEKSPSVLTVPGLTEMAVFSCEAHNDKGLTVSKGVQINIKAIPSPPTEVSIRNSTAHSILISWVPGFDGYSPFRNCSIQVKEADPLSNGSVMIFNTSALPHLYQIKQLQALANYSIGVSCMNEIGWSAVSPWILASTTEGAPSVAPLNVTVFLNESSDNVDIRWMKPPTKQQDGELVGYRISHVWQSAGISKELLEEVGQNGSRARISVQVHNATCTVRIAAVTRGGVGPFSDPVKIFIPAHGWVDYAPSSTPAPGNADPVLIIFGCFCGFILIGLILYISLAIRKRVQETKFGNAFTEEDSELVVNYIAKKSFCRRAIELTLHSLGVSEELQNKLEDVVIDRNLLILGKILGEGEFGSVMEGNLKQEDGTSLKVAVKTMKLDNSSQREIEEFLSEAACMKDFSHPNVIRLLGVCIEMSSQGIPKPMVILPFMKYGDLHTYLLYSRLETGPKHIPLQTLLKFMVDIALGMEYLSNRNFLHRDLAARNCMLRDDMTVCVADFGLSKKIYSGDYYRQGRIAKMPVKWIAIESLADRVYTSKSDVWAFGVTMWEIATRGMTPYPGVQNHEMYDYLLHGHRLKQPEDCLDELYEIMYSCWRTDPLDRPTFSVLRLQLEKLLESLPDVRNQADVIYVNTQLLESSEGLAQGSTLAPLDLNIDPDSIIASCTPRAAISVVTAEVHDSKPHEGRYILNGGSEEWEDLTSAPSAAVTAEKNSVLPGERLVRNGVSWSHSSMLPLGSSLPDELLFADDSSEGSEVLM
Sequence of Fes (P07332 whole entry, looked up): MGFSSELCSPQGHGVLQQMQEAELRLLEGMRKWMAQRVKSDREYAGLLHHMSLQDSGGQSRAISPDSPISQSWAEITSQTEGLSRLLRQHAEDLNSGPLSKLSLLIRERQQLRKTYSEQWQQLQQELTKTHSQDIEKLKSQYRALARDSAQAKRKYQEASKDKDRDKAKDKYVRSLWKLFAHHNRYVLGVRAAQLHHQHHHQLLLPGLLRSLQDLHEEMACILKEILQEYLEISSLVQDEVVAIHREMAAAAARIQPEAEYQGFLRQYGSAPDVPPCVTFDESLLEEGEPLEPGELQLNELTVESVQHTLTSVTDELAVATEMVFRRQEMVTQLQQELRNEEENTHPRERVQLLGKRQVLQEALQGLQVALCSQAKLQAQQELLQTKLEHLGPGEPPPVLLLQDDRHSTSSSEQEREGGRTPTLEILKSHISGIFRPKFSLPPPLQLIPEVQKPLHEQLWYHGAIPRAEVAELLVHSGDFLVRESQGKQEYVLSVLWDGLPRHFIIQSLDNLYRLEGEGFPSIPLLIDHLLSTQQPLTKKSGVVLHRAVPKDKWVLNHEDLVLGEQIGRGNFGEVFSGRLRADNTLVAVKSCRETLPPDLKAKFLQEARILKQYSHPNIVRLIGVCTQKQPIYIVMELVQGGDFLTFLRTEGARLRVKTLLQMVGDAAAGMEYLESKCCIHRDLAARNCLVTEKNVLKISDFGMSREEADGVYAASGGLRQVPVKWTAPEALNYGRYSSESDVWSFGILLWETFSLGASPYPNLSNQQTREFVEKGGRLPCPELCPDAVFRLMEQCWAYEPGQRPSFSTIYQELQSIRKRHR

Sequence	SH2 binding enrichment (SHP2-C SH2)	SH2 binding enrichment (c-Src SH2)	SH2 binding enrichment (Grb2 SH2)	phosphorylation enrichment (Fes)	phosphorylation enrichment (AncSZ)	phosphorylation enrichment (MERTK)	phosphorylation enrichment (FGFR3)	phosphorylation enrichment (Jak2)	phosphorylation enrichment (Fer (mouse))	phosphorylation enrichment (c-Src)	phosphorylation enrichment (Fyn)	phosphorylation enrichment (Hck)	phosphorylation enrichment (FGFR1)	phosphorylation enrichment (EPHB1)	phosphorylation enrichment (c-Abl (mouse))	phosphorylation enrichment (EPHB2)
AEFGLYGAMVR [VSX2_Y222_YF]	0.816	0.42	0.783	1.21	1.07	0.674	0.715	0.868	0.828	3.61	5.3	6.05	0.538	0.741	0.678	0.719
PADRAYSWFQH [NDST1_Y711_YF]	0.572	0.976	0.949	1.43	1.14	4.22	1.14	1.03	17.8	0.868	0.833	0.466	1.84	0.543	0.645	0.67
QEGPEYWDRET [HLA-A_Y83_Q86R]	0.539	0.533	0.787	2.45	2.03	0.924	1.08	2.21	0.92	0.814	0.692	0.871	0.85	1.16	1.44	0.946
LYEDRYLLGPS [ASS1_Y87_T91P]	0.662	0.626	0.69	1.67	1.2	0.899	1.16	0.812	5.42	1.5	2.3	4.13	1.2	3.52	0.683	1.4
DGNIDYAEFAK [MCFD2_Y138_Y135N]	1.04	0.443	0.801	1.2	1.24	0.51	0.62	0.987	0.445	0.646	0.804	0.673	0.595	0.498	0.757	0.545
DEEYEYMNRRR [ERBB3_Y1199]	0.701	0.619	0.837	0.986	1.57	0.37	0.629	0.93	0.466	0.454	0.483	0.546	0.501	0.465	0.65	0.503
RHPLDYLRQFP [NARS2_Y138_E137D_YF]	0.746	0.519	1.05	0.74	0.719	0.56	0.449	0.78	0.349	0.609	0.511	0.498	0.429	0.458	0.753	0.583
PFRKLYESVKK [MKI67_Y241_W238R]	0.711	0.714	0.973	0.695	0.931	0.612	0.685	1.16	0.458	0.491	0.454	0.563	2.28	0.516	1	0.368
SVTCTYSAALN [TP53_Y126_P128A]	0.654	0.395	0.686	1.72	1.31	0.62	0.929	1.41	0.552	0.836	0.657	0.679	0.552	0.876	0.947	0.803
IITVHYVLEES [RYR2_Y4559_A4556T]	1.56	1.37	1.45	1.22	1.17	0.498	0.831	1.02	0.579	0.523	0.53	0.517	0.594	0.777	0.794	0.577
AACQHYGVRTC [NR4A2_Y275]	0.896	0.721	1	0.581	0.592	0.406	0.405	0.513	0.379	0.408	0.452	0.421	0.472	0.381	0.424	0.412
RQGKDYIGAIP [KDR_Y951_V952I]	0.646	0.428	0.904	0.764	0.804	0.813	0.547	1.14	0.462	0.837	0.715	0.696	0.596	0.399	1.88	0.62
IGKAGYTDKMV [ENO1_Y236_V240M]	1.47	0.513	0.82	0.545	0.523	0.372	0.367	0.52	0.3	0.336	0.33	0.376	0.377	0.445	0.407	0.352
CQAHGYSCQLI [STK11_Y156_F157S]	0.847	0.768	0.854	0.925	0.77	0.47	0.531	0.556	0.506	0.435	0.648	0.5	0.529	0.568	0.492	0.508
LEFGDYHPLKP [VPS35L_Y32]	0.733	0.58	0.902	1.05	2.75	1.66	7.68	6.7	0.846	0.821	0.696	4.28	11.5	1.3	1.19	1.26

Continued, in another order:

SH2 binding enrichment (SHP2-C SH2)	SH2 binding enrichment (c-Src SH2)	SH2 binding enrichment (Grb2 SH2)	Sequence	phosphorylation enrichment (Fes)	phosphorylation enrichment (AncSZ)	phosphorylation enrichment (MERTK)	phosphorylation enrichment (FGFR3)	phosphorylation enrichment (Jak2)	phosphorylation enrichment (Fer (mouse))	phosphorylation enrichment (c-Src)	phosphorylation enrichment (Fyn)	phosphorylation enrichment (Hck)	phosphorylation enrichment (FGFR1)	phosphorylation enrichment (EPHB1)	phosphorylation enrichment (c-Abl (mouse))	phosphorylation enrichment (EPHB2)
0.81	0.552	1.13	ALWFIYSHTRS [ENG_Y614_YF]	1.5	1.01	0.34	0.676	0.956	0.45	0.379	0.423	0.448	0.44	0.597	0.697	0.445
0.789	0.633	0.89	AEFGLYRAMVR [VSX2_Y222_G223R_YF]	0.779	0.753	0.843	0.673	0.726	0.431	0.855	0.821	4.12	0.484	0.731	1.48	0.595
0.529	0.374	0.742	VDLSKCITTIA [FAS_Y232_Y232C]	1.01	0.975	0.364	0.641	0.697	0.413	0.308	0.402	0.431	0.461	0.626	0.681	0.533
0.952	1.93	1.63	VQVAYYTVMMN [SPATA17_Y84_M86V]	1.71	1.79	4.41	4.41	3.06	1.97	2.03	1.7	1.69	5.77	2.88	1.01	1.47
0.77	0.619	1.04	KDHPDYKYQPR [SOX10_Y171]	0.595	0.668	0.387	0.481	0.509	0.435	0.412	0.458	0.463	0.492	0.362	0.687	0.381
1.62	0.558	1.13	LNNIIYRVERA [CUX2_Y1470]	1.34	1.48	0.43	0.816	1.22	0.748	1.33	0.936	0.738	0.825	0.87	0.864	0.958
0.789	0.778	0.976	EKDSNYCLCRT [ASIC2_Y357]	0.883	0.772	0.601	0.605	0.763	0.442	0.506	0.569	0.513	0.556	0.551	0.573	0.634
1.17	1.27	1.22	FSALDYKIFYY [WDPCP_Y210_L205F]	1.45	1.38	0.462	1.18	1.4	0.529	0.763	0.613	0.473	1.23	0.928	1.2	0.588
0.556	0.442	0.791	ECKASCPGKIT [PRSS3_Y232_Y232C]	0.536	0.461	0.468	0.44	0.402	0.453	0.359	0.401	0.351	0.404	0.336	0.577	0.335
1.04	1.49	1.17	DRKRQYELLKL [KIF4B_Y684]	0.758	0.682	0.4	0.576	0.876	0.421	0.395	0.392	0.488	0.331	0.44	0.545	0.462
0.98	0.945	1.01	SCTFTCLLGDR [ETHE1_Y38_Y38C]	1.03	0.916	0.465	0.669	0.84	0.458	0.387	0.458	0.414	0.488	0.45	0.737	0.536
3.2	1.66	1.66	HLRAGYIIPLQ [GAA_Y822]	0.753	0.668	0.355	0.534	0.671	0.257	0.327	0.417	0.268	0.367	0.398	0.681	0.453
1.5	1.37	1.71	LLREWYMIISR [HUWE1_Y4066]	1.45	1.35	0.433	1.1	1.3	0.723	0.419	0.588	0.441	0.708	0.703	0.931	0.792
0.571	0.369	0.63	VGSEDYGRDLT [SPTAN1_Y1792]	1.44	1.1	0.456	1.04	1.24	0.621	0.513	0.588	0.592	0.564	0.626	1.04	0.587
0.735	0.526	0.783	SDQPDYDSVAS [GIT2_Y392_N387S]	1.27	1.29	0.499	0.693	1.09	0.739	0.525	0.565	0.594	0.625	0.655	0.729	0.726
0.684	0.475	0.822	AEVIWYKGDEV	1.41	1.13	0.399	0.784	1.42	0.491	0.474	0.394	0.602	0.433	0.707	1.15	0.572
2.28	0.717	0.744	GIATGYLVLKE [DNMT3B_Y588]	0.77	0.737	0.357	0.611	0.836	0.376	0.4	0.385	0.511	0.464	0.511	0.533	0.558
0.445	0.532	0.872	EGDGVYTLNDE [HP_Y125_N129D]	1.23	1.18	0.482	0.838	1.21	0.555	3.79	4.51	1.81	0.453	0.643	0.8	0.727
